Experimental data taken from US20240092922A1 (EUCURE BEIJING BIOPHARMA, published 2024).
Residue numbers refer to the chain shown, from its start.

T1: monkey (Rhesus macaque) 4-1BB (r4-1BB) on transfected CHO cells (monkey (Rhesus macaque), UniProt Q07011 24-255 (human entry))
T1 construct: also called rm4-1BB; CHO-r4-1BB
T1 chain: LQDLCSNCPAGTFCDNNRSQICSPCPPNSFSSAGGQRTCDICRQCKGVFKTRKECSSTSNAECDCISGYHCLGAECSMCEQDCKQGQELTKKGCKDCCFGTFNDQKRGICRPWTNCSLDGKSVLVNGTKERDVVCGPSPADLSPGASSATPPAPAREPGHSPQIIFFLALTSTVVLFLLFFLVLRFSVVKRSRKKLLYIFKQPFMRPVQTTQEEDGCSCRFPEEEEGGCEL

B1: 56-2A6 (antibody, V domains shown)
VH: QIQLVQSGPELKKPGETVKISCKASGYTFTNYGMNWVKQAPGKGFKWMGWINTYTGEPTYADDFKGRFAFSLEISASTAYLQINNLKNEDTATYFCARRDYLGAMDYWGQGTSVTVSS
VL: ENVLTQSPAIMSASPGEKVTMTCRASSSVSSSYLHWYQQKSGASPKLWIYSTSNLASGVPARFSGSGSGTSYSLTISSVEAEDAATYYCQQYSAYLYTFGGGTKLEIK
notes: mouse antibody purified from ascites
B2: 29-6A5 (antibody, V domains shown)
VH: QVQLQQPGAELVRPGASVKLSCKASGYTFSSYWINWVKQRPGQGLEWIGNIYPSDSYTNYNQKFKDKATLTVDKSSSTAYMQLSSPTSDDSAVYYCTRTWEFYYDSVFDYWGQGTTLTVSS
VL: DIKMTQSPSSMYASLGERVTITCKASQDINSYLSWFQQKPGKSPKTLIYRANRLVDGVPSRFSGSGSGQDYSLTISSLEYEDMGIYYCLQYDELPPTFGGGTKLEIK
notes: as for B1
B3: 5F9-H2K2-IgG4 (antibody, V domains shown)
VH: QVQLKESGPGLVKPSETLSLTCTVSGFSLTTYDISWVRQPPGKGLEWLGVIWTGGGTNYNSSFMSRVTISKDTSKNQVSLKLSSVTAADTAIYYCERVDYWGQGTTVTVSS
VL: DVVMTQSPLSLPVTLGQPASISCRSSQSLVHSNGNTYLHWFQQRPGQSPKLLIYKVSNRFSGVPDRFSGSGSGTAFTFKISRVEAEDVGVYYCSQNTHVPWTFGGGTKVEIK
notes: humanized
B4: 5F9-H3K1-IgG4 (antibody, V domains shown)
VH: B3 VH with L20I, T73N, V107L
VL: B3 VL with K50R
notes: humanized
B5: 5F9-H1K1-IgG4 (antibody, V domains shown)
VH: B3 VH with K5Q, L48I, I92V
VL: B3 VL with K50R
notes: humanized
B6: 5F9-H1K2-IgG4 (antibody, V domains shown)
VH: B3 VH with K5Q, L48I, I92V
VL: B3 VL
notes: humanized; also called 30-5F9-H1K2-IgG4
B7: 5F9-H2K4-IgG4 (antibody, V domains shown)
VH: B3 VH
VL: B3 VL with Q17D, F41Y, Q42L, V109L
notes: humanized
B8: 5F9-H2K3-IgG4 (antibody, V domains shown)
VH: B3 VH
VL: B3 VL with F41Y, V109L
notes: humanized
B9: 5F9-H1K3-IgG4 (antibody, V domains shown)
VH: B3 VH with K5Q, L48I, I92V
VL: B3 VL with F41Y, V109L
notes: humanized
B10: 5F9-H3K2-IgG4 (antibody, V domains shown)
VH: B3 VH with L20I, T73N, V107L
VL: B3 VL
notes: humanized
B11: 5F9-H2K1-IgG4 (antibody, V domains shown)
VH: B3 VH
VL: B3 VL with K50R
notes: humanized
B12: 5F9-H1K4-IgG4 (antibody, V domains shown)
VH: B3 VH with K5Q, L48I, I92V
VL: B3 VL with Q17D, F41Y, Q42L, V109L
notes: humanized
B13: 5F9-H3K3-IgG4 (antibody, V domains shown)
VH: B3 VH with L20I, T73N, V107L
VL: B3 VL with F41Y, V109L
notes: humanized
B14: 5F9-H3K4-IgG4 (antibody, V domains shown)
VH: B3 VH with L20I, T73N, V107L
VL: B3 VL with Q17D, F41Y, Q42L, V109L
notes: humanized
B15: 1C4-H4K4-IgG4 (antibody, V domains shown)
VH: QGQMVQSGAEVKKPGASVKLSCKTSGFTFSSSYINWLRQAPGQSLEWIAWIFAGTGGTYYNQKFTGRAQLTVDTSASTAYMELSSLRSEDTAIYYCARHSPRATLFDFWGQGTTLTVSS
VL: EIVLTQSPATLSASPGERVTMSCRASSSVNHMHWYQQRPGFSPRAWIYATSNLASGIPARFSGSGSGTSYSLTISSLEPEDFATYYCQQWSSNPYTFGGGTKLEIK
notes: humanized
B16: 6A5-H2K2-IgG2 (antibody, V domains shown)
VH: QVQLVQSGAEVKKPGSSVKLSCKASGYTFSSYWINWVRQAPGQGLEWIGNIYPSDSYTNYNQKFKDRATLTVDKSTSTAYMELSSLRSEDTAVYYCTRTWEFYYDSVFDYWGQGTLVTVSS
VL: DIQMTQSPSSLSASLGERVTITCKASQDINSYLSWYQQKPGKAPKTLIYRANRLVDGVPSRFSGSGSGQDFTLTISSLQPEDIATYYCLQYDELPPTFGGGTKVEIK
notes: humanized
B17: 6A5-H3K3-IgG2 (antibody, V domains shown)
VH: B16 VH with R38K, R67K, L116T, V117L
VL: B16 VL with Y36F
notes: humanized
B18: 6A5-H3K2-IgG2 (antibody, V domains shown)
VH: B16 VH with R38K, R67K, L116T, V117L
VL: B16 VL
notes: humanized
B19: 6A5-H1K3-IgG2 (antibody, V domains shown)
VH: B16 VH with I48M, A68V
VL: B16 VL with Y36F
notes: humanized
B20: 6A5-H2K1-IgG2 (antibody, V domains shown)
VH: B16 VH
VL: B16 VL with T46L
notes: humanized
B21: 6A5-H2K3-IgG2 (antibody, V domains shown)
VH: B16 VH
VL: B16 VL with Y36F
notes: humanized
B22: 6A5-H3K1-IgG2 (antibody, V domains shown)
VH: B16 VH with R38K, R67K, L116T, V117L
VL: B16 VL with T46L
notes: humanized
B23: 6A5-H1K1-IgG2 (antibody, V domains shown)
VH: B16 VH with I48M, A68V
VL: B16 VL with T46L
notes: humanized
B24: 6A5-H1K4-IgG2 (antibody, V domains shown)
VH: B16 VH with I48M, A68V
VL: B16 VL with Y36F, F71Y, V104L
notes: humanized
B25: 6A5-H3K4-IgG2 (antibody, V domains shown)
VH: B16 VH with R38K, R67K, L116T, V117L
VL: B16 VL with Y36F, F71Y, V104L
notes: humanized
B26: 6A5-H2K4-IgG2 (antibody, V domains shown)
VH: B16 VH
VL: B16 VL with Y36F, F71Y, V104L
notes: humanized
B27: 6A5-H1K2-IgG2 (antibody, V domains shown)
VH: B16 VH with I48M, A68V
VL: B16 VL
notes: humanized

Each binder was assayed against T2, human 4-1BB (h4-1BB) on transiently transfected CHO cells (human, UniProt Q07011 24-255) (assay: flow cytometry, CHO cells transfected with human 4-1BB, antibody at 10 µg/ml).
T2 construct: also called TNFRSF9; CD137
Experimental: (§1) 25 μl CHO cells transiently transfected with human 4-1BB were added to each well in a plate. The purified antibodies were titrated to final concentrations of 10, 1, 0.1, 0.01, 0.001 μg/ml. The titrated antibodies were added to each well at 4° C. and incubated for 30 minutes.
(§2) After being washed with phosphate-buffered saline (PBS) (1200 rpm, 5 minutes) twice, 50 μl of FITC labeled anti-mouse IgG Fc antibody (anti-mIgG Fc-FITC) at 1:100 dilution was added into each well, and incubated for 30 minutes at 4° C., followed by PBS wash (1200 rpm, 5 minutes). The signal for FITC was detected by flow cytometry.

| Binder | percentage of cells with FITC signal |
| --- | --- |
| B1 | 46.6% |
| B2 | 80.5% |

These binders were tested against T2, human 4-1BB (h4-1BB) on transiently … (assay: flow cytometry, CHO cells transfected with human 4-1BB, antibody at 0.001 µg/ml).
Experimental: as §1, §2

| Binder | percentage of cells with FITC signal |
| --- | --- |
| B1 | 0.25% |

Each binder was assayed against T3, Histidine-tagged human 4-1BB protein (h4-1BB-His) (human, UniProt Q07011 24-186) (assay: SPR (Biacore T200), antibody on Protein A chip, h4-1BB-His injected;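 note: dissociation phase followed for 300 s, Kd derived as koff divided by kon from the kinetic fit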).
T3 construct: not shown: histidine tag

| Binder | Kd | koff | kon |
| --- | --- | --- | --- |
| B3 | 13.4 nM | 0.00261 s⁻¹ | 194000 M⁻¹ s⁻¹ |
| B4 | 12.2 nM | 0.00242 s⁻¹ | 198000 M⁻¹ s⁻¹ |
| B5 | 11.4 nM | 0.00253 s⁻¹ | 222000 M⁻¹ s⁻¹ |
| B6 | 12 nM | 0.00247 s⁻¹ | 205000 M⁻¹ s⁻¹ |
| B7 | 12.4 nM | 0.00269 s⁻¹ | 216000 M⁻¹ s⁻¹ |
| B8 | 9.81 nM | 0.00207 s⁻¹ | 212000 M⁻¹ s⁻¹ |
| B9 | 10.1 nM | 0.00208 s⁻¹ | 206000 M⁻¹ s⁻¹ |
| B10 | 13.7 nM | 0.00258 s⁻¹ | 188000 M⁻¹ s⁻¹ |
| B11 | 11.2 nM | 0.00225 s⁻¹ | 202000 M⁻¹ s⁻¹ |
| B12 | 9.95 nM | 0.00244 s⁻¹ | 246000 M⁻¹ s⁻¹ |
| B13 | 10.5 nM | 0.0022 s⁻¹ | 210000 M⁻¹ s⁻¹ |
| B14 | 11.4 nM | 0.0027 s⁻¹ | 236000 M⁻¹ s⁻¹ |
| B15 | 19.3 nM | 0.00056 s⁻¹ | 29000 M⁻¹ s⁻¹ |
| B16 | 0.28 nM | 0.000652 s⁻¹ | 2.33e+06 M⁻¹ s⁻¹ |
| B17 | 0.252 nM | 0.000538 s⁻¹ | 2.14e+06 M⁻¹ s⁻¹ |
| B18 | 0.402 nM | 0.000825 s⁻¹ | 2.05e+06 M⁻¹ s⁻¹ |
| B19 | 0.214 nM | 0.000475 s⁻¹ | 2.22e+06 M⁻¹ s⁻¹ |
| B20 | 2.32 nM | 0.00155 s⁻¹ | 668000 M⁻¹ s⁻¹ |
| B21 | 0.221 nM | 0.000504 s⁻¹ | 2.28e+06 M⁻¹ s⁻¹ |
| B22 | 2.78 nM | 0.00181 s⁻¹ | 650000 M⁻¹ s⁻¹ |
| B23 | 1.17 nM |  |  |
| B24 | 0.321 nM | 0.000693 s⁻¹ | 2.16e+06 M⁻¹ s⁻¹ |
| B25 | 0.4 nM | 0.000747 s⁻¹ | 1.87e+06 M⁻¹ s⁻¹ |
| B26 | 0.26 nM | 0.000581 s⁻¹ | 2.24e+06 M⁻¹ s⁻¹ |
| B27 | 0.278 nM | 0.000662 s⁻¹ | 2.38e+06 M⁻¹ s⁻¹ |

The binders below were run against T2, human 4-1BB (h4-1BB) on transiently … (assay: flow cytometry, CHO cells transfected with human 4-1BB, antibody at 0.1 µg/ml).
Experimental: as §1, §2

| Binder | percentage of cells with FITC signal |
| --- | --- |
| B1 | 17.1% |
| B2 | 70.8% |

These binders were tested against T2, human 4-1BB (h4-1BB) on transiently … (assay: flow cytometry, CHO cells transfected with human 4-1BB, antibody at 0.01 µg/ml).
Experimental: as §1, §2

| Binder | percentage of cells with FITC signal |
| --- | --- |
| B1 | 0.89% |
| B2 | 47.4% |

These binders were tested against T2, human 4-1BB (h4-1BB) on transiently … (assay: flow cytometry, CHO cells transfected with human 4-1BB, antibody at 1 µg/ml).
Experimental: as §1, §2

| Binder | percentage of cells with FITC signal |
| --- | --- |
| B1 | 40.9% |
| B2 | 73.4% |

Biological target: T1, monkey (Rhesus macaque) 4-1BB (r4-1BB) …
Assay: flow cytometry on transfected CHO cells;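 note: antibodies tested at 1 µg/ml on CHO cells for 30 min at 4 °C, binding detected with FITC- or PE-labeled anti-mouse IgG Fc secondary by flow cytometry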
Experimental: (§3) 25 μl CHO cells were added to each well. 25 μl purified anti-h4-1BB antibodies (1 μg/ml) were added to each well and were incubated at 4° C. for 30 minutes.
(§4) After being washed with PBS (1200 rmp, 5 min) twice, 50 μl of FITC labeled anti-mouse IgG Fc antibody (anti-mIgG Fc-FITC) was added into each well at 1:100 dilution, followed by incubating at 4° C. for 30 minutes, and then PBS wash (1200 rmp, 5 min). In some cases, PE labeled anti-mouse IgG Fc antibody (anti-mIgG Fc-PE) was used to label the antibody instead, and was added into each tested well at 1:500 dilution. The signals for FITC and PE were determined by flow cytometry.

| Binder | binding result |
| --- | --- |
| B2 | binds |

What follows are binders tested against T4, chimeric (mouse and human) 4-1BB (c4-1BB) on transfected CHO cells (chimeric (mouse and human)) (assay: flow cytometry on transfected CHO cells;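 note: antibodies tested at 1 µg/ml on CHO cells for 30 min at 4 °C, binding detected with FITC- or PE-labeled anti-mouse IgG Fc secondary by flow cytometry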).
T4 construct: also called chi4-1BB; CHO-c4-1BB
Experimental: as §3, §4

| Binder | binding result |
| --- | --- |
| B1 | binds |
| B2 | binds |

Each binder was assayed against T5, mouse 4-1BB (m4-1BB) on transfected CHO cells (mouse, UniProt P20334 24-256) (assay: flow cytometry on CHO cells transfected with mouse 4-1BB).
T5 construct: also called CHO-m4-1BB
Experimental: as §3, §4

| Binder | binding result |
| --- | --- |
| B1 | no binding (tested: 1 µg/ml) |
| B2 | no binding (tested: 1 µg/ml) |
